Results on one substance are retold here after patent publication US20230158165.

For data set [1], the system named is PEG2 construct peptide (KKKK-Peg2-Val-Cit-Tregitope-Nle), before addition of MPA and HSA.
Data set [2] relates to PEG12 construct peptide (Peg12-Val-Cit-Tregitope-Nle), before addition of MPA and HSA.

With “Recombinant human Cathepsin B (catalog 953-CY of R&D Systems)”, the “cleavage of the Val-Cit site, evaluated by mass spec” value in data set [1] was “the PEG2 peptide did not have successful cleavage, and further modification of the Cathepsin B protocol did not produce successful cleavage”; in data set [2], “For the PEG12 product, successful cleavage is demonstrated”.
